Source: US20260209293A1 (Novo Nordisk, published 2026)
*1 amine or outer side, *2 acyl side, *3 side chain or, on linkers, in order; H or OH if unused. The star is where a group is joined. C18 diacid = O=C(O)CCCCCCCCCCCCCCCCC(=O)*; γGlu = O=C(O)[C@H](CCC(=O)[*:2])N[*:1]

T1: human calcitonin receptor (a) (human, UniProt P30988 25-474)
T1 sequence (looked up): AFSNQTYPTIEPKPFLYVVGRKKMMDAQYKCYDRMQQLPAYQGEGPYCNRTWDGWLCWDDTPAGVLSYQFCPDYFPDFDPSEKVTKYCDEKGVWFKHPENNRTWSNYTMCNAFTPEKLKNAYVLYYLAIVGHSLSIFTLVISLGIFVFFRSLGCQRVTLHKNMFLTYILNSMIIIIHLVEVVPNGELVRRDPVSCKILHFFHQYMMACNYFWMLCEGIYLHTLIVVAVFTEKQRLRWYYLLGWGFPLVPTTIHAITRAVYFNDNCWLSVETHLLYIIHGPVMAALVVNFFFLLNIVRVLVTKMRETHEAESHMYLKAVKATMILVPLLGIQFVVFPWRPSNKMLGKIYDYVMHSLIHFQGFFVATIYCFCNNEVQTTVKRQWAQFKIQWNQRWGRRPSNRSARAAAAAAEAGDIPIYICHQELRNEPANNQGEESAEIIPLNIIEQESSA

T2: human amylin-3(a) receptor (human, UniProt P30988 25-474; O60896 24-148)
T2 sequence (looked up) 1: T1 sequence (looked up)
T2 sequence (looked up) 2: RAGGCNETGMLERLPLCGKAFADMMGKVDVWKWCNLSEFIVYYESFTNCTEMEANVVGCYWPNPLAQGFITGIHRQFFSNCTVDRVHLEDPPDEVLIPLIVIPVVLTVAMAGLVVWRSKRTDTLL

B1: N^1-[(4S)-4-carboxy-4-[[(4S)-4-carboxy-4-(17-carboxyheptadecanoylamino)butanoyl]amino]butanoyl]-[Ala1,Ser2, His3, Leu4,Ser5,Ala7,Gln8,Glu14, His17, Pro25, … (peptide)
peptide: {C18 diacid-γGlu-γGlu}-ASHLSTAQTQRLAEFLHHFGPILPPTDVGSETY-NH2
SMILES: CC[C@H](C)[C@H](NC(=O)[C@@H]1CCCN1C(=O)CNC(=O)[C@H](Cc1ccccc1)NC(=O)[C@H](Cc1c[nH]cn1)NC(=O)[C@H](Cc1c[nH]cn1)NC(=O)[C@H](CC(C)C)NC(=O)[C@H](Cc1ccccc1)NC(=O)[C@H](CCC(=O)O)NC(=O)[C@H](C)NC(=O)[C@H](CC(C)C)NC(=O)[C@H](CCCNC(=N)N)NC(=O)[C@H](CCC(N)=O)NC(=O)[C@@H](NC(=O)[C@H](CCC(N)=O)NC(=O)[C@H](C)NC(=O)[C@@H](NC(=O)[C@H](CO)NC(=O)[C@H](CC(C)C)NC(=O)[C@H](Cc1c[nH]cn1)NC(=O)[C@H](CO)NC(=O)[C@H](C)NC(=O)CC[C@H](NC(=O)CC[C@H](NC(=O)CCCCCCCCCCCCCCCCC(=O)O)C(=O)O)C(=O)O)[C@@H](C)O)[C@@H](C)O)C(=O)N[C@@H](CC(C)C)C(=O)N1CCC[C@H]1C(=O)N1CCC[C@H]1C(=O)N[C@H](C(=O)N[C@@H](CC(=O)O)C(=O)N[C@H](C(=O)NCC(=O)N[C@@H](CO)C(=O)N[C@@H](CCC(=O)O)C(=O)N[C@H](C(=O)N[C@@H](Cc1ccc(O)cc1)C(N)=O)[C@@H](C)O)C(C)C)[C@@H](C)O
B2: N^1-[(4S)-4-carboxy-4-(17-carboxyheptadecanoylamino)butanoyl]-[Ala1,Ser2,His3,Leu4,Ser5,Leu7,Gln8,Glu14,His17,Asp21,Pro22,Pro27,Asp31, Pro34,Asp35, … (peptide)
peptide: {C18 diacid-γGlu}-ASHLSTLQTQRLAEFLHHSSDPFGAIPSSTDVGPDTP-NH2
SMILES: CC[C@H](C)[C@H](NC(=O)[C@H](C)NC(=O)CNC(=O)[C@H](Cc1ccccc1)NC(=O)[C@@H]1CCCN1C(=O)[C@H](CC(=O)O)NC(=O)[C@H](CO)NC(=O)[C@H](CO)NC(=O)[C@H](Cc1c[nH]cn1)NC(=O)[C@H](Cc1c[nH]cn1)NC(=O)[C@H](CC(C)C)NC(=O)[C@H](Cc1ccccc1)NC(=O)[C@H](CCC(=O)O)NC(=O)[C@H](C)NC(=O)[C@H](CC(C)C)NC(=O)[C@H](CCCNC(=N)N)NC(=O)[C@H](CCC(N)=O)NC(=O)[C@@H](NC(=O)[C@H](CCC(N)=O)NC(=O)[C@H](CC(C)C)NC(=O)[C@@H](NC(=O)[C@H](CO)NC(=O)[C@H](CC(C)C)NC(=O)[C@H](Cc1c[nH]cn1)NC(=O)[C@H](CO)NC(=O)[C@H](C)NC(=O)CC[C@H](NC(=O)CCCCCCCCCCCCCCCCC(=O)O)C(=O)O)[C@@H](C)O)[C@@H](C)O)C(=O)N1CCC[C@H]1C(=O)N[C@@H](CO)C(=O)N[C@@H](CO)C(=O)N[C@H](C(=O)N[C@@H](CC(=O)O)C(=O)N[C@H](C(=O)NCC(=O)N1CCC[C@H]1C(=O)N[C@@H](CC(=O)O)C(=O)N[C@H](C(=O)N1CCC[C@H]1C(N)=O)[C@@H](C)O)C(C)C)[C@@H](C)O

What was measured:
[1] = molecular target: T1, human calcitonin receptor (a); assay: cell-based or functional assay
[2] = molecular target: T2, human amylin-3(a) receptor; assay: cell-based or functional assay

Row | Binder | hCalcR potency, EC50 (pM); CRE-luciferase reporter in BHK cells [1] [pM] | hAmyR3 potency, EC50 (pM); CRE-luciferase reporter in BHK cells [2] [pM]
1 | B1 | 15.7 | 5.71
2 | B2 | 1.74 | 1.69
